Reference: publication PMC9614494, “Glutamate 1-semialdehyde aminotransferase is connected to GluTR by GluTR-binding protein and contributes to the rate-limiting step of 5-aminolevulinic acid synthesis” (The Plant Cell, 2022)

B1: recombinant 6xHis-GSAAT (enzyme)
chain: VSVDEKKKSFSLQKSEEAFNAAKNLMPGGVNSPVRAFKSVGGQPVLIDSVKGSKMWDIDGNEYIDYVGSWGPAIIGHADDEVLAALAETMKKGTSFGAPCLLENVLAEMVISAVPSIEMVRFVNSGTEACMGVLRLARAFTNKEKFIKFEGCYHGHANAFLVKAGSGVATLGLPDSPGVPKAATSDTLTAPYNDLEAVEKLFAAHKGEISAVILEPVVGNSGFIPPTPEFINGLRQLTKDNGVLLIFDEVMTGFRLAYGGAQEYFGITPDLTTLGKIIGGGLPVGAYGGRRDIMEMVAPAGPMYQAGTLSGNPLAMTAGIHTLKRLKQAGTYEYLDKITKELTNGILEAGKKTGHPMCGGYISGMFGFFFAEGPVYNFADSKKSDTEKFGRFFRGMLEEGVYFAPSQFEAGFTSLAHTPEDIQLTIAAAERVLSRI
B2: recombinant 6xHis-GBP (natural protein, Arabidopsis thaliana, UniProt Q9LU39 43-317, looked up)
chain: SVSTTLDTPATASTHKPFPAEVSRSIMELSSVGTLSTLTHDGWPLGVGVRFAVDKDGTPVLCLNRSVSPDKRSALHVQLEQCGLRTPQCTIQGSIGRPGDDTVLKRLSATWREKFGEEVKEDSLYVVAVDRVLQMEDFMEDGIWVASSDYKNASPDPLRDIAEDIVNQINANNMEDIFRFCNVYVDLDFVVSETKMIWMDRLGFDLRVWSPRGVYDVRIPFPMEVTDEKGAKSSFNGMSQLAWEVEKSYCPADFNKVKLLKQVVGSSHSHKGGGQ
notes: Labelled with the dye RED-NHS 2nd generation where it was the MST target; unlabelled in the in vitro pull-down; also called 6× His-GBP; source: E. coli Rosetta 2, purified (Ni-NTA)

Assays:
Conditions in all cases: both partners purified
recombinant 6xHis-GluTR = target: T1, recombinant 6xHis-GluTR (Arabidopsis thaliana, UniProt P42804 62-543); test: MST; 6xHis-GSAAT labelled with RED-NHS 2nd generation as target, 6xHis-GluTR titrated; Monolith NT.115, 30°C, PBS
T1 construct: Glutamyl-tRNA reductase (GluTR), Arabidopsis thaliana; Named only in the results on MST; the methods on purification list only GST-GluTR

[1] = target: T2, labelled 6xHis-GBP incubated with GluTR (GBP/GluTR) (Arabidopsis thaliana, UniProt Q9LU39 43-317; P42804 62-543, RED-NHS 2nd generation dye); test: MST; 6xHis-GBP labelled with RED-NHS 2nd generation as target, with or without GluTR, ligand in 1:1 dilutions from 5 nM to 110 µM; Monolith NT.115, 30°C, 40% LED power, PBS
T2 construct: as m7; Glutamyl-tRNA reductase (GluTR), Arabidopsis thaliana; The sentence on this titration says only GluTR; 6xHis-GluTR is named for the titration before it; source: recombinant proteins mixed before the titration (6xHis-GBP: E. coli Rosetta 2, purified)

recombinant 6xHis-GSAAT = target: B1; test: as above

| Binder | Kd (recombinant 6xHis-GluTR) | Kd [1] | Kd (recombinant 6xHis-GSAAT) |
| --- | --- | --- | --- |
| B1 | 3000 nM | 940 nM |  |
| B2 |  |  | 178 nM |
